Data as given in patent US20230120736A1, “ANTI-CD98 ANTIBODIES AND ANTIBODY DRUG CONJUGATES” (AbbVie Inc., priority 2016, published 2023).
Marks after values point to notes of the source that are not given here.

Key:
[1] = test system: NCI-H146 (human small cell lung cancer) xenograft; experiment: NCI-H146 xenograft tumor growth inhibition; assay type: in vivo, mouse; details: SCID-bg mice
Experimental: The in vivo efficacy of anti-CD98 hybridoma mAb conjugates were tested using Ab3-CZ and Ab5-CZ as examples in NCI-H146 (human small cell lung cancer) xenograft model. […] The cells were cultured as monolayers in RPMI-1640 culture media (Invitrogen, Carlsbad, Calif.) that was supplemented with 10% Fetal Bovine Serum (FBS, Hyclone, Logan, Utah). To generate xenografts, 5×10^6 (NCI-H146) viable cells were inoculated subcutaneously into the right flank of immune deficient female SCID-bg mice (Charles River Laboratories, Wilmington, Mass.). The injection volume was 0.2 mL and composed of Matrigel (BD, Franklin Lakes, N.J.). Tumors were size matched at approximately 212 mm^3. Antibodies and conjugates were formulated in phosphate buffered saline, pH 7.2 and injected intraperitoneally. […] Therapy began within 24 hours after size matching of the tumors. Mice weighed approximately 21 g at the onset of therapy. Tumor volume was estimated two to three times weekly. Measurements of the length (L) and width (W) of the tumor were taken via electronic caliper and the volume was calculated according to the following equation: V=L×W^2/2. Mice were euthanized when tumor volume reached 3,000 mm^3 or skin ulcerations occurred. Eight mice were housed per cage. Food and water were available ad libitum. Mice were acclimated to the animal facilities for a period of at least one week prior to commencement of experiments. Animals were tested in the light phase of a 12-hour light: 12-hour dark schedule (lights on at 06:00 hours). Anti-CD98 conjugates (10 mg/kg) were administered as a single dose (QDx1) intraperitoneally. A human IgG control antibody (MSL109, a humanized IgG1 antibody that binds to cytomegalovirus (CMV) glycoprotein H) was used as a negative control agent.
(§1) To refer to efficacy of therapeutic agents, parameters of amplitude (TGImax), durability (TGD) and response frequency (CR, PR, OR) of therapeutic response are used. The efficacy of inhibition of NCI-H146 xenografts growth with CD98-targeted ADCs is illustrated by Table 6, below. In the tables, to refer to efficacy, parameters of amplitude (TGImax) and durability (TGD) of therapeutic response are used. TGImax is the maximum tumor growth inhibition during the experiment. Tumor growth inhibition is calculated by 100*(1−Tv/Cv) where Tv and Cv are the mean tumor volumes of the treated and control groups, respectively. TGD or tumor growth delay is the extended time of a treated tumor needed to reach a volume of 1 cm^3 relative to the control group. TGD is calculated by 100*(Tt/Ct−1) where Tt and Ct are the median time periods to reach 1 cm^3 of the treated and control groups, respectively. Distribution of the response amplitude in a specific group is given by the frequency of complete responders (CR), partial responders (PR), and overall responders (OR). CR is the percentage of mice within a group with a tumor burden of 25 mm^3 for at least three measurements. PR is the percentage of mice within a group with a tumor burden larger than 25 mm^3 but less than one-half of the volume at onset of treatment for at least three measurements. OR is the sum of CR and PR.
The in vivo anti-tumor efficacy of selected humanized anti-CD98 mAb conjugates were tested in NCI-H146 (human small cell lung cancer) xenograft model, as described in Example 6. Tumor growth inhibition was reported as TGImax in Table 28.

[2] = Size exclusion chromatography, % aggregate fraction of ADC; assay type: physicochemical; details: hybridoma mAb conjugated with synthon CZ, Method A
Experimental: Size exclusion chromatography was performed using a Shodex KW802.5 column in 0.2M potassium phosphate pH 6.2 with 0.25 mM potassium chloride and 15% IPA at a flow rate of 0.75 ml/min. The peak area absorbance at 280 nm was determined for each of the high molecular weight and monomeric eluents by integration of the area under the curve. The % aggregate fraction of the conjugate sample was determined by dividing the peak area absorbance at 280 nm for the high molecular weight eluent by the sum of the peak area absorbances at […] of the high molecular weight and monomeric eluents multiplied by 100%.

[3] = test system: HCC38 breast cancer cell line; experiment: Growth inhibition assay (CellTiter-Glo); details: read-out: ADC potency, IC50, HCC38, 4-days treatment, 3000 cells per well
[4] = test system: Jurkat acute T cell leukemia cell line; experiment: Growth inhibition assay (CellTiter-Glo); details: read-out: ADC potency, IC50, Jurkat, 5-days treatment, 3000 cells per well
[5] = test system: EBC-1 (human lung squamous cell carcinoma) xenograft; experiment: EBC-1 xenograft tumor growth inhibition; assay type: in vivo, mouse; details: SCID-bg mice; for Growth Inhibition TGImax / Response Frequency CR / Response Frequency PR / Tumor growth delay (TGD): 10 mg/kg IP QDx1; for Response Frequency OR: 10 mg/kg IP QDx1, sum of CR and PR
Experimental: as §1, with “The efficacy of inhibition of NCI-H146 xenografts growth with CD98-targeted ADCs is illustrated by Table 6, below.” left out
EBC-1 was obtained from the Japanese Collection of Research Bioresources Cell Bank (JCRB, Osaka, Japan) and were cultured using MEM culture media with 10% FBS. To generate xenografts, 5×10^6 EBC-1 viable cells were inoculated subcutaneously into the right flank of immune deficient female SCID-bg mice (Charles River Laboratories, Wilmington, Mass.). The injection volume was 0.2 mL and the inoculum was composed of 1:1 mixture of S-MEM and Matrigel. Tumors were size matched at approximately 200 mm^3. Antibodies and conjugates were formulated in phosphate buffered saline, pH 7.2 and injected intraperitoneally. […] Therapy began within 24 hours after size matching of the tumors. Mice weighed approximately 21-22 g at the onset of therapy. Tumor volume was estimated two to three times weekly. Measurements of the length (L) and width (W) of the tumor were taken via electronic caliper and the volume was calculated according to the following equation: V=L×W^2/2. Mice were euthanized when tumor volume reached 3,000 mm^3 or skin ulcerations occurred. Eight mice were housed per cage. Food and water were available ad libitum. Mice were acclimated to the animal facilities for a period of at least one week prior to commencement of experiments. Animals were tested in the light phase of a 12-hour light: 12-hour dark schedule (lights on at 06:00 hours). Anti-CD98 conjugates (10 mg/kg) were administered as a single dose (QDx1) intraperitoneally. A human IgG control antibody (AB095, a human IgG1 antibody recognizing tetanus toxoid See Larrick et al., 1992, Immunological Reviews 69-85) was used as a negative control agent.
To refer to efficacy of therapeutic agents, parameters of amplitude (TGImax), durability (TGD) and response frequency (CR, PR, OR) of therapeutic response are used as described in the Example 6.

| Molecule | % Aggregates by SEC [2] [%] | IC50 [3] [pM] | IC50 [4] [pM] | further results |
| --- | --- | --- | --- | --- |
| MSL109: "a humanized IgG1 antibody that binds to cytomegalovirus (CMV) glycoprotein H", "negative control agent" [reference compound] | – | – | – | Growth Inhibition TGD ([1]; 10 mg/kg IP QDx1): 0%; Growth Inhibition TGImax ([1]; 10 mg/kg IP QDx1): 0%; Response Frequency CR ([1]; 10 mg/kg IP QDx1): 0%; Response Frequency PR ([1]; 10 mg/kg IP QDx1): 0%; Response Frequency OR ([1]; 10 mg/kg IP QDx1, sum of CR and PR): 0% |
| Ab14-CZ (conjugate) VH: EVKLQQSGDELVRPGASVKISCKASGYTFTSYSMHWVKERPGQGLEWIGAIFPIIGTTEYNQKFKGKATLTADKSSNTANMELSRLTSEDSAVYYCARVYLSYFDYWGQGVMVTVSS VL: DIQMTQSPSFLSASVGDRVTINCKASQNINKYLDWYQRKHGEAPKLLIYNTNNLQTGIPSRFSGSGSGTDYTLTISSLQPEDVATYFCLQHSSRYTFGAGTKLELK | 8.8 | 798 | 63 | – |
| Ab10-CZ (conjugate) VH: EVQLVESGGGLVQPGRSLKLSCAASGFTFSDYAMAWVRQAPKKSLEWVATIIYDGRGTYCRDSVKGRFTISRDNAKSTLYLQMDSLRSEDTATYYCARQGDGTYHYWGYFDYWGQGVMVTVSS VL: DIVMTQSPSSLAVSAGETVTINCKSSQSLLSSGNQKNYLAWYQQKPGQSPKLLIYWASTRQSGVPDRFIGSGSGTDFTLTISSVQAEDLAIYYCQQYYDTPYTFGAGTKVDLK | 4.7 | 1160 | 148 | – |
| ChAb15-CZ (conjugate) VH: EVQLVESGGGLVQPGRSLKLSCAASGFTFSDYTMAWVRQAPKKGLEWVATIIYDGRGTYYRDSVKGRFTISRDNAKSTLYLQMDSLRSEDTATYYCARQSDGTYYYWGYFDYWGQGVMVTVSS VL: DIVMTQSPSSLAVSAGETVTINCKSSQSLLFSGNQKNYLAWYQQKPGQSPKLLIYWASTRQSGVPDRFIGSGSGTDFTLTIRSVQAEDLAIYYCQQYYDSPYTFGAGTKLELK | – | – | – | Growth Inhibition TGImax [5]: 70* %; Response Frequency CR [5]: 0%; Response Frequency PR [5]: 0%; Tumor growth delay (TGD) [5]: 74* %; Response Frequency OR [5]: 0% |
| Ab15-CZ (conjugate) VH: EVQLVESGGGLVQPGRSLKLSCAASGFTFSDYTMAWVRQAPKKGLEWVATIIYDGRGTYYRDSVKGRFTISRDNAKSTLYLQMDSLRSEDTATYYCARQSDGTYYYWGYFDYWGQGVMVTVSS VL: DIVMTQSPSSLAVSAGETVTINCKSSQSLLFSGNQKNYLAWYQQKPGQSPKLLIYWASTRQSGVPDRFIGSGSGTDFTLTIRSVQAEDLAIYYCQQYYDSPYTFGAGTKLELK | 5.7 | 1060 | 76 | – |
| Ab12-CZ (conjugate) VH: EVQLVESGGGLVQPGRSLKLSCAASGFTFSDYAMAWVRQAPKKGLEWVASIIYDGRGTYYRDSVKGRFTISRDNAKSTLYLQMDSLRSEDTATYYCARQGDGTYYYWGSFDYWGQGVMVTVSS VL: DIVMTQSPSSLAVSAGETVTINCKSSQSLLSSGNQKNYLAWYQQKPGQSPKLLIYWASTRQSGVPDRFIGSGSGTDFTLTISSVQAEDLAIYHCQQYYDTPYTFGAGTKLELK | 2.9 | 685 | 94 | – |
| Ab11-CZ (conjugate) VH: EVQLVESGGGLVQPGRSLKLSCAASGFTFSDYAMAWVRQAPKKGLEWVAGIIYDGRGTYYRDSVKGRFTISRDNAKSTLYLQMDSLRSEDTATYYCARQGDGTYYYWGYFDYWGQGVMVTVSS VL: DIVMTQSPSSLAVSAGETVTINCRSSQSLLSSGNQKNYLAWYQQKPGQSPKLLIYWASTRQSGVPDRFIGSGSGTDFTLTISSVQAEDLAIYYCQQYYDTPYTFGAGTKLELK | 4.2 | 1140 | 311 | – |
| ChAb12-CZ (conjugate) VH: EVQLVESGGGLVQPGRSLKLSCAASGFTFSDYAMAWVRQAPKKGLEWVASIIYDGRGTYYRDSVKGRFTISRDNAKSTLYLQMDSLRSEDTATYYCARQGDGTYYYWGSFDYWGQGVMVTVSS VL: DIVMTQSPSSLAVSAGETVTINCKSSQSLLSSGNQKNYLAWYQQKPGQSPKLLIYWASTRQSGVPDRFIGSGSGTDFTLTISSVQAEDLAIYHCQQYYDTPYTFGAGTKLELK | – | – | – | Growth Inhibition TGImax [5]: 76* %; Response Frequency CR [5]: 0%; Response Frequency PR [5]: 25%; Tumor growth delay (TGD) [5]: 74* %; Response Frequency OR [5]: 25% |
| Ab13-CZ (conjugate) VH: QVQLKESGPGLVQPSQTLSLTCTVSGFSLSSYGVIWVRQPPGKGLEWMGIIWANGNTNYNSALKSRLSISRDTSKSQVYLKMNSLQTEDTATYYCARHYYDGTHYYGYFDYWGQGVMVTVSS VL: DTVMTQTPSSQAVSAGEKVTMSCKSSQSLLYSENKKKYLAWYQQKPGQSPKLLIYWASTRESGVPDRFIGSGSGTDFTLTISSVQAEDLAVYYCQQYYNFPYTFGAGTKLELK | 4.7 | 787 | 149 | – |
